Here are results for 14 molecules from patent US20230068663A1 (University of Texas, published 2023).

T1: LAIR1 on reporter cells (UniProt Q6GTX8 22-165, limits assumed)
T1 sequence (looked up): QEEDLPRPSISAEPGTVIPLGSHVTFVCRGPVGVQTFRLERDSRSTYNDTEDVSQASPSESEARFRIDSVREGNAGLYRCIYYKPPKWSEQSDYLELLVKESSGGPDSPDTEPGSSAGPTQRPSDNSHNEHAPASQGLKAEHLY

B1: B2-12 (antibody, V domains shown)
VH: QVQLVQSGDEVKKAGASVRVSCKASGYTFPDNGISWVRQAPGHGLEWMGWINVDTGYTHYAQRVQDRVVMTTDTSTNTLHMTLRSLTTDDTAVYYCAREIEGVWTAWGQGTLVIVSS
VL: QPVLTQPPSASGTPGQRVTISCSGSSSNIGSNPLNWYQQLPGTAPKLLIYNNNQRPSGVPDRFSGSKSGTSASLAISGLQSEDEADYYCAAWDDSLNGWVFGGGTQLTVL
notes: also called B2-12_HC; B2-12_LC
B2: B2-18 (antibody, V domains shown)
VH: QVQLVQSGAEVKKPGASVKVSCKASGYTFTRYGFSWVRQAPGQGLEWMGWISGYNGNTKYAQKFQGRVTMTTDTSTSTAYMELRSLTSNDTAVYYCARDRGSGYLEYWGPGTLVTVSS
VL: DVQMTQSPSSLSASVGERVTLTCRASQGIYSSLAWYQQKPGKAPKLLLYGTSQLERGVPSRFSGSGSGTDYTLTISSLQPEDSATYYCQQHYNLPITFGQGTRLEIK
notes: also called B2-18_HC; B2-18_LC
B3: B2-25 (antibody, V domains shown)
VH: QVQLVESGGGLVKPGGSLRLSCAASGFTFSDHYMSWIRQAPGKGLEWVSYITTTGSTMSYADSVKGRFTISRDNSKNSLHLQLSSLRAEDTAVYYCARDSIHVDGAFDIWGQGTMVTVSS
VL: SYELTQPPSVSVAPGQTARITCGGNNIGSKSVHWYQQKPGQAPVLVVYDDSDRPSGIPERFSGSNSGNTATLTISRVEAGDEADYYCQVWDSSSDHWVFGGGTKLTVL
notes: also called B2-25_HC; B2-25_LC
B4: HCB2-10 (antibody, V domains shown)
VH: QVQLVESGGGLVQPGGSLRLSCAASGFTFSNYAMSWVRQAPGKGLEWVSAISGSSISTYYADSVKGRFTISRDNSKNTLYLQMNSLRAEDTAVYYCASSGFGSFDYWGQGTLVTVSS
VL: QPPSVSAAPRQRVTISCSGSSSNIGDNSVNWYQQLPGKAPKLLIYLDDLLPSGVSGRFSGSKSGTSASLVISGLQSEDEADYYCATWDDSLNGVVFGGGTKVTVL
notes: also called HCB2-10_HC; HCB2-10_LC
B5: HCB2-5 (antibody, V domains shown)
VH: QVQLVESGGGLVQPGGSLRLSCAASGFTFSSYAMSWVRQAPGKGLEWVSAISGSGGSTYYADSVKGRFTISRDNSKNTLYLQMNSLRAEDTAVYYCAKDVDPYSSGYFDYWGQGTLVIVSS
VL: AIQMTQSPSSVSASVGDRVTITCRASQGIGSWLAWYQQKPGKAPKLLISVASSLQSGVPSRFSGSGSGTDFTLTISSLQPEDFATYYCQQANSFPLTFGGGTTVEIK
notes: also called FCB2-5; HCB2-5_HC
B6: HCB2-18 (antibody, V domains shown)
VH: QVQLVQSGAEVKKPGSSVKVSCKASGGTFSSYAISWVRQAPGQGLEWMGGIIPIFGTANYAQKFQGRVTITADESTSTAYMELSSLRSEDTAVYYCARGGYQPLDYWGQGTLVIVSS
VL: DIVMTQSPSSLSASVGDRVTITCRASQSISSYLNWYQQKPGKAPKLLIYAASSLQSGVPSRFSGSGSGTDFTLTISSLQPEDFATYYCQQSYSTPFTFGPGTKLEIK
notes: also called HCB2-18_HC; HCB2-18_LC
B7: HCB2-27 (antibody, V domains shown)
VH: QVQLVESGGGLVKPGGSLRLSCAASGFTFANAWMGWVRQAPGKGLQWVSHIKPSSSGGRTTDYDAPVKGRFTISRDDSNDTVYLQMNSLKTEDTGVYYCVTGRRVAKTFDFWGQGTTVSVSS
VL: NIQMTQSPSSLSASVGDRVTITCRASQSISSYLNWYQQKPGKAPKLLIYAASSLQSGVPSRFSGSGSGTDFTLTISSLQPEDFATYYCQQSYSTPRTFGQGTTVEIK
notes: also called HCB2-27_HC; HCB2-27_LC
B8: HCB2-17 (antibody, V domains shown)
VH: QVQLVQSGAEVKKPGSSVKVSCKASGGTFSSYAISWVRQAPGQGLEWMGGIIPIFGTANYAQKFQGRVTITADESTSTAYMELSSLRSEDTAVYYCAISSGYYYNPFDYWGQGTLVTVSS
VL: not shown
notes: also called HCB2-17_HC; HCB2-17_LC
B9: HCB2-13 (antibody, V domains shown)
VH: QVQLVESGGGLVQPGGSLRLSCAASGFTLSSYAMSWVRQAPGEGLEWVSSINSGGSTYYAGSVRGRFTISRDNSKNTLYLQMNSLRAEDTAVYYCAKAKSYSSDLDHWGQGTTVTVSS
VL: DVVMTQSPSSLSVSAGEKVTMSCKSSQSLLNSGNQKTYLAWYQQKPGQPPKLLIYGASTRESGVPDRFTGSGSGTDFTLTISSVQAEDLAVYYCQNDHSYPFTFGSGTKVEIKR
notes: also called HCB2-13_HC; HCB2-13_LC
B10: HCB2-15 (antibody, V domains shown)
VH: QVQMVESGGDLVQPGQSLRLSCVTSGFPFADYAMSWFRQAPGQRPEWIGYIKSKTRDGTTKYAESLRGRFTISRDDSKSIAYLQMNNLKREDTAVYYCALGGAAALWGPGTLVSVSS
VL: QPPSVSGAPGQRVTISCAGSSSNIGAGYGVHWYQHLPGTAPKLLIYGDNNRPSGVPYRFSGSKSGTSASLAITGLQAEDEADYFCQSYDSSLGVGVFGGGTKVTVL
notes: also called HCB2-15_HC; HCB2-15_LC
B11: HCB2-24 (antibody, V domains shown)
VH: QMQLEQSGAEVKKPGSSVKVSCKASGGTFSSYAISWVRQAPGQGLEWMGGIIPIFGTANYAQKFQGRVTITADKSTSTAYMELSSLRSEDTAVYYCARAGGIHYYDSLDYWGQGTLVTVSS
VL: not shown
notes: also called HCB2-24_HC; HCB2-24_LC
B12: B2-10 (antibody, V domains shown)
VH: QVQLVQSGGGLVQPGGSLRLSCAASGFTFSSYAMSWVRQAPGKGLEWVSTINDSGGSTYYADSVKGRFTISRDNSKNTLYLQMNSLRAEDTAVYYCAKDHITIFGVAPFDYWGLGTLVTVSS
VL: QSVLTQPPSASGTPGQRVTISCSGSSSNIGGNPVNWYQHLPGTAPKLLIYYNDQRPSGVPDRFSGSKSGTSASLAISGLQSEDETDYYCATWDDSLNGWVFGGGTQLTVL
notes: also called B2-10_HC; B2-10_LC
B13: B2-8 (antibody, V domains shown)
VH: QVQLVQSGAEVKKPGSSVKVSCKASGGTFSSYAISWVRQAPGQGLEWMGGIIPIFGTANYAQKFQGRVTITADESTSTAYMELSSLRSEDTAVYYCARVAVADTFFDYWGQGTLVTVSS
VL: QPVLTQPASVSGSPGQSITISCTGTSSDVGGYNYVSWYQQHPGKAPKLMIYDVSNRPSGVSNRFSGSKSGNTASLTISGLQAEDEADYYCSSYTSSSTPYVFGTGTKVTVL
notes: also called B2-8_HC; B2-8_LC
B14: B2-24 (antibody, V domains shown)
VH: QVQLVESGGGLVKPGGSLRLSCAASGFTFSDYYMSWIRQAPGKGLEWVSYISSSSSYTNYADSVKGRFTISRDNAKNSLYLQMNSLRAEDTAVYYCARVGDLDAFDIWGQGTMVTVSS
VL: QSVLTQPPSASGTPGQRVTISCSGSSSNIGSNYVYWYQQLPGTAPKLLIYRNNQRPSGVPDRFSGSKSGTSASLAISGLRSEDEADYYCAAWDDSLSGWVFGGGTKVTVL
notes: also called B2-24_HC; B2-24_LC

The target of one test is T2, LILRA6.
T2 construct: also called LILRA6 reporter cells
T2 sequence (chain, as listed by the source limits assumed): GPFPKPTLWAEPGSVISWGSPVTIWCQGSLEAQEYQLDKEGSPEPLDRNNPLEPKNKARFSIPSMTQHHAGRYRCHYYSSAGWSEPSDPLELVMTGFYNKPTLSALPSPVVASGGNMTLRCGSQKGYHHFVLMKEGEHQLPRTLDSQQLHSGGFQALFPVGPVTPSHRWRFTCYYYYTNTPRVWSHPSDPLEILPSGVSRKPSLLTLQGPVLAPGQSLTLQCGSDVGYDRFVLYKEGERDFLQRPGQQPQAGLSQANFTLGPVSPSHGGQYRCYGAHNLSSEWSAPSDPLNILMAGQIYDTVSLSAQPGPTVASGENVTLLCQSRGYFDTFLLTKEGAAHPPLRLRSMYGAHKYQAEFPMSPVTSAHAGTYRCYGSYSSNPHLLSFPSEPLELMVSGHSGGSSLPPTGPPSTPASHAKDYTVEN
Nature of the test: flow cytometry, reporter cells [cont'd]. A general note: In flow cytometry, cells or beads pass a laser one at a time.
As for B1, the binding result is reported as “no binding”.

Turning to B2, the binding result is “no binding”.

In the next test the target is T3, LILRA5.
T3 construct: also called LILRA5 reporter cells
T3 sequence (chain, as listed by the source limits assumed): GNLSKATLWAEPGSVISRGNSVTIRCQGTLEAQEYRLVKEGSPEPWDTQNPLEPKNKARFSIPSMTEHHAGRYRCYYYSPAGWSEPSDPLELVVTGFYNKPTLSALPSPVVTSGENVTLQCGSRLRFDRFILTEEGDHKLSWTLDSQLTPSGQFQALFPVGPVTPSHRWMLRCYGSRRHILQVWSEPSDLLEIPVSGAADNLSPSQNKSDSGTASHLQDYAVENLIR
Nature of the test: flow cytometry, reporter cells [cont'd].
Regarding B1, the binding result is reported as “no binding”.

In the case of B2, the binding result is given as “no binding”.

In another test the target is T1, LAIR1 on reporter cells. Nature of the test: flow cytometry, reporter cells [cont'd].
B1: the binding result is recorded as “no binding”.

Consider B2, for which the binding result is “no binding”.

As to B3, the binding result is reported as “no binding”.

For another test, the target named is T1, LAIR1 on reporter cells. The test can be described thus: flow cytometry, reporter cells. As to the method:
Binding of LILRB2 monoclonal antibodies was detected using flow cytometry on LILRAs, LILRBs or LAIR1-expressing reporter cells using a Allophycocyanin (APC)-labeled goat anti-human IgG Fc specific secondary antibody. Non: non-stained reporter cells. NEG: cells incubated only with secondary Ab. POS: cells incubated with commercial antibody conjugated with APC or AF647 for the respective LIL or LAIR-1 receptors. The number indicates mean fluorescence intensity (MFI) of APC or AF647.
In the case of B4, the binding result was “no binding”.

For the molecule B5, the binding result is reported as “no binding”.

The target of another test is T4, full extracellular domain (ECD) of LILRB2 fused to Fc fragment of mouse IgG2a (human; mouse, UniProt Q8N423 22-460).
T4 construct: extracellular domain; also called B2-ECD; wildtype B2-ECD; not shown: Fc fragment of mouse IgG2a
Nature of the test: ELISA, coated human LILRB2 ECD-mIgG2a Fc [panel A]. An excerpt:
FIGS. 19A-B. ELISA binding measurement of antibodies to human and non-human primate (cynomolgus monkey, cyno) LILRB2 recombinantly produced in HEK293 cells. (FIG. 19A) ELISA binding to human LILRB2. (FIG. 19B) ELISA binding to cyno-LILRB2. The fusion proteins of the extracellular domain (ECD) of human LILRB2 or NHP-LILRB2 with Fe of mouse IgG2a were used to coat ELISA plates and antibodies were titrated in different concentrations as indicated in the graph.
(In general: In an ELISA, binding on a coated surface is turned into a signal by an enzyme label.)
As for B6, the binding result is “binds”.

As for B7, the binding result was “binds”.

With B8, the binding result is recorded as “binds”.

With B9, the binding result was “binds”.

B10: the binding result was “binds”.

On to B11, for which the binding result is listed as “binds”.

In another test the target is T5, LILRB2 chimeric receptor on LILRB2 reporter cells (extracellular domain of LILRB2 fused with … (UniProt Q8N423 22-460)).
T5 construct: extracellular domain;domain: transmembrane/intracellular domains; associates with DAP12; also called LILRB2-expressing reporter cells
Nature of the test: flow cytometry, LILRB2 reporter cells. An excerpt:
(§1) FIGS. 1A-C. Screening specific monoclonal antibodies for LILRB2. […] Binding of monoclonal antibodies was screened using flow cytometer on LILRB2 reporter cells. Bound antibodies were detected with Allophycocyanin (APC)-labeled goat anti-human IgG secondary antibody. (FIG. 1B) Quantification of binding ability of monoclonal antibodies to LILRB2 reporter cells.
(§2) Screening specific monoclonal antibodies for LILRB2. The inventors employed a stable reporter cell system to detect the binding ability of selected monoclonal antibodies to LILRB2. In this chimeric receptor reporter system, the extracellular domain (ECD) of LILRB2 is fused with transmembrane/intracellular domains of PILRb that associates with the adaptor protein DAP12 containing an immunoreceptor tyrosine-based activation motif. 27 monoclonal antibodies were screened. The LILRB2 reporter cells were incubated with selected monoclonal antibody, then labeled with (APC) goat anti-human IgG secondary antibody. […] The inventors generated LILRBAs and LILRBs reporters stably transduced with each receptor's extracellular domain (ECD).
Consider B1, for which the “% of cells anti-hIgG APC+” value worked out at 25.5%.

In the case of B12, the “% of cells anti-hIgG APC+” value worked out at 35.1%.

On to B13, for which the “% of cells anti-hIgG APC+” value came out at 24.8%.

Regarding B2, the “% of cells anti-hIgG APC+” value was 75.6%.

Take B14: the “% of cells anti-hIgG APC+” value turned out to be 13%.

Turning to B3, the “% of cells anti-hIgG APC+” value amounted to 39.2%.

The next test has as its target T6, LILRB2-His antigen (UniProt Q8N423 22-460, limits assumed).
T6 construct: Coated on ELISA plates; also used for phage panning; also called LILRB2 antigen; not shown: His tag
The test can be described thus: indirect ELISA, coated LILRB2-His. The method, then: ELISA binding EC of LILRB2 antibodies. The ELISA binding EC₅₀ of these 24 antibodies were measured by indirect ELISA. […] After incubation, HRP-conjugated goat anti-human Fc secondary antibody was incubated with the plates. The TMB substrate was added for color development and measurement of absorbance at 450 nm.
On to B1, for which it took 0.444 nM to reach a half-maximal effect (EC50).

Regarding B12, the EC50 (commonly the concentration that produces a half-maximal response) was determined as 0.575 nM.

B13 registered an EC50 of 0.557 nM.

On to B2, for which the EC50 is 0.355 nM.

B14: the EC50 is 5.06 nM.

Regarding B3, the EC50 worked out at 1.73 nM.

The next test has as its target T7, LILRB2 (antigen in solution, Octet RED 96) (UniProt Q8N423 22-460, limits assumed).
T7 construct: also called LILRB2 solution
Nature of the test: BLI (Octet RED 96), antibody on protein A biosensor, LILRB2 in solution. As to the method: Affinity measurement of blocking antibodies. Affinities of the 5 blocking antibodies were measured on Octet RED 96 system.
Background: BLI is a label-free optical method that tracks binding on a fibre tip over time.
In the case of B4, the Kd (commonly the free concentration of one partner at which half of the binding sites on the other are occupied at equilibrium, for simple one-to-one binding) came out at 8.67 nM; the koff (usually a measure of how fast the partners let go of each other) was found to be 0.0061 s⁻¹; the kon – broadly, the rate constant with which the complex forms – was determined as 703000 M⁻¹ s⁻¹.

Consider B5, for which the affinity, expressed as Kd, was 10.2 nM; the koff is 0.00324 s⁻¹; the kon was 317000 M⁻¹ s⁻¹.

The target of a further test is T1, LAIR1 on reporter cells. The test can be described thus: flow cytometry, reporter cells. The source holds these as a separate data set.
In the case of B13, the binding result was “no binding”.

In the case of B14, the binding result is “no binding”.

Another test has as its target T6, LILRB2-His antigen. The test can be described thus: ELISA titration on LILRB2 and LILRA1 antigens.
Turning to B1, the “fold potency of binding to LILRB2 against binding to LILRA1” value (from here on “fold potency of binding to LILRB2”) was > 100 fold.

In the case of B12, the “fold potency of binding to LILRB2” value was > 100 fold.

As for B2, the “fold potency of binding to LILRB2” value is > 100 fold.

For another test, the target named is T5, LILRB2 chimeric receptor on LILRB2 …. The test can be described thus: flow cytometry on LILRB2 reporter cells, APC anti-human IgG.
Source text: as §1, §2
B2: the “percent of LILRB2 reporter cells labeled” value is > 95%.
